Assay results taken from patent US20220332804A1 (CSL INNOVATION, published 2022).
Where a chain is given by its changes, count along the chain named.

Columns and labels:
Test in all cases: SPR; KD relative to WT C2;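 also: biacore SPR at 37 °C, anti-C2 mAbs captured on an anti-human IgG chip, alanine or serine C2 surface mutants tested, KD from 1:1 fit compared with wild-type C2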
[1] = biological target: T1, human C2 L620A (human, UniProt P06681 21-752)
T1 sequence: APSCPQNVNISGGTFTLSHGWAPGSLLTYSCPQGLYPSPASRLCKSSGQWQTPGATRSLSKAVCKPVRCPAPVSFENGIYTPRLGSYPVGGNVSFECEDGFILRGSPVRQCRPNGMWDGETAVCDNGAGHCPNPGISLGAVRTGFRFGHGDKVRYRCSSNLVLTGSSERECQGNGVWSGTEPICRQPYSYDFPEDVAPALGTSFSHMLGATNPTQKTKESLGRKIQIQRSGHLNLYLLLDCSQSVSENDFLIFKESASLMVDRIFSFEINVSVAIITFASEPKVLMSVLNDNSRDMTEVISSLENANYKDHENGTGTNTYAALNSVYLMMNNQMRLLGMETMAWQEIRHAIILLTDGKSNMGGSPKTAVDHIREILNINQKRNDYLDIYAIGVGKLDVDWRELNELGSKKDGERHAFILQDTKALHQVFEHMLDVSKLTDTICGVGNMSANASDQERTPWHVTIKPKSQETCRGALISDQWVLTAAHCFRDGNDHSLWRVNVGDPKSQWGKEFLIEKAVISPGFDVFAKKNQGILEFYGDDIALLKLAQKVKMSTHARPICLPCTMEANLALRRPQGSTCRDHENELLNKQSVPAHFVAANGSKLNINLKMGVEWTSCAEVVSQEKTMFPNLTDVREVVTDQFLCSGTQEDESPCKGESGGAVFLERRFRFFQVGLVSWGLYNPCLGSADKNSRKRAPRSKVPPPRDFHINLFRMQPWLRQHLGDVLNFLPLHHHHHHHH

[2] = biological target: T2, human C2 G432A (human, UniProt P06681 21-752)
T2 sequence: T1 sequence with G412A, A600L

[3] = biological target: T3, human C2 S456A (human, UniProt P06681 21-752)
T3 sequence: T1 sequence with S436A, A600L

[4] = biological target: T4, human C2 L439A (human, UniProt P06681 21-752)
T4 sequence: T1 sequence with L419A, A600L

- Fold diff [1]: 1 fold
- Fold diff [2]: 1 fold
- Fold diff [3]: 5 fold
- Fold diff [4]: 42 fold
B1: RF16-214 (antibody, V domains shown)
VH: EVQLLESGGGLVQPGGSLRLSCAASGFTFSWYQMMWVRQAPGKGLEWVSRIYPSGGGTAYADSVKGRFTISRDNSKNTLYLQMNSLRAEDTAVYYCARDAGYGDNWGQGTLVTVSS
VL: QSALTQPPSVSVSPGQTASITCSGDKLGEKYASWYQQKAGQSPVMVIYQDRKRPSGIPERFSGSNSGNTATLTISGTQAMDEADYYCQAWDTRAVVFGGGTKLTVLG
